To fix the notation:
B1: C518 (antibody, V domains shown)
VH: EVQLVESGGGLIQPGGSLRLSCAASGITVSSNYMSWVRQAPGKGLEWVSVMYAGGSSFYADSVKGRFTISRDNSKNTLYLQMNSLRVEDTAVYYCARDLIALGVDVWGQGTTVTVSS
VL: DIQLTQSPSFLSASVGDRVTITCRASQGISSYLAWYQQKPGKAPKLLIYAASTLQSGVPSRFSGSGSGTEFTLTISSLQPEDFATYYCQLLNSYPMCSFGQGTKLEIK
B2: C069 (antibody, V domains shown)
VH: QVQLVQSGAEVKKPGSSVNVSCKASGGTFSTYAIHWVRQAPGQGLEWMGGIIPLFHTANYAQKFQGRVTITADESTSTAYMELSSLRSEDTAMYYCAINTQWDLVPRWGRGTLVTVSS
VL: EIVLTQSPGTLSLAPGERATLSCRASQSVNSNYLAWYQQKPGQAPRLLIYGASSRATGIPDRFSGSGSGTDFTLTISRLEPEDFAVYYCQQYGFSLYSFGQGTKLEIK
B3: C534 (antibody, V domains shown)
VH: QVQLVQSGAEVKKPGSSVRVSCKASGGTFSRNVISWVRQAPGQGLEWMGGIIPMFATANYAQKFQGRVTITADESSSTAYMELSSLRSEDTAVYYCAREDFILVSAPIRENSYYYYGMDVWGQGTTVTVSS
VL: EIVLTQSPGTLSLSPGERATLSCRASQSVSSNYLAWYQQKPGQAPRLLIYDASSRATGIPDRFSGSGSGTDFTLTISRLEPEDFAVYYCQQYGGSPRTFGQGTKVEIK
B4: C539 (antibody, V domains shown)
VH: EVQLVESGGGLVQPGRSLRLSCAASGFTFDDYALHWVRQAPGKGLEWVSGISWNGDSIGYADSVKGRFTISRDNAKNSLSLQMNSLTAEDTALYYCAKGVEYSSSSNCDYWGQGTLVTVSS
VL: DIQMTQSPSSVSASVGDRVTITCRASQDISSWLAWYQQKPGKAPKLLISLASGLQSGVPSRFSGSGSETDFTLTISSLQPEDFATYYCQQTNSFPLTFGGGTKVEI
B5: C514 (antibody, V domains shown)
VH: EVQLVESGGGLVQPGGSLRLSCAASEFIVTRNYMSWVRQAPGKGLEWVSLIYPGGSTFYADSVKGRFTISRDNSKNTLFLHMNSLRAEDTAVYYCARDLAGRLDYWGQGTLVTVSS
VL: DIQMTQSPSSLSASVGDRVTITCQASQDINNFLNWYQQKPGKAPKLLIYDASNLETGVPSRFSGSGSGTDFTFTISSLQPEDIAIYYCQQYDSLSRLTFGGGTKVEIK
B6: C094 (antibody, V domains shown)
VH: QVQLQESGPGLVKPSETLSLTCNVSGVSISTDYWSWIRQPPGKGLEWIGYIYYSGNTKDYNPSLKSRVTISVDTSKNQFSLMLSSVTAADTAVYYCARHYDILTSLSWFDPWGQGTLVTVSS
VL: QSVLTQPPSVSAAPGQKVTISCSITNSNLGNIYVSWYQQLPGTAPKLLIYGNNKRPSGIPDRFSGSKSGTSATLGITGLQTGDEAHYYCGTWDSSLSANWVFGGGTKLTVL
B7: C533 (antibody, V domains shown)
VH: EVQLVESGGSLVKPGGSLRLSCVASGLTFNHAWMSWVRQAPGKGLEWVGRIKSKIDGGTTDYAAPVKGRFTISRDDSKSTQYLQMNSLKTEDTAVYYCTTDCFWRLGGTTCYEHDAFDVWGQGTMVTVSS
VL: DIQMTQSPSSLSASVGDRVTITCRASQAIATFLNWYQQKPGKAPKLLIYAASSLQSGVPSRFSGSGSGTDFTLTISNLQPEDFATYYCQQSYNSLHFGGGTKVEIK
B8: C537 (antibody, V domains shown)
VH: QLQLQESGPGLVKPSETLSLTCTVSGGAISSRNYHWGWIRQPPGKGLEWIGSIYYSGSTYYSPSLKSRVTISVDTSKNQFSLRLSSVTAADTAVYYCARLETSGWYTEDVFDIWGQGTMVTVSS
VL: DIQMTQSPSSLSASVGDRVTITCRASQSISSYLNWYQQKPGKAPKLLIYAASSLQSGVPSRFSGSGSGTDFTLTISSLLPEDFATYYCQRSYSAMYTFGQGTKLEIK
B9: C542 (antibody, V domains shown)
VH: EVQLVESGGGLVQPGGSLRLSCAASGLTVTSNYMSWVRQAPGRGLEWVSLIYPGGTTYYADSVKGRFTVSRDNSKNTLYLQMDSLRAEDTGVYYCARETLGRGGDCWGQGTLVTVSS
VL: DIQMTQSPSSLSASVGDRVTITCQASQDISNFLNWYQQKPGKAPKLLIYDASNLETGVPSRFSGSRSGTDFTFTISSLQPDDIATYYCQQYDNLPRSFGQGTKLEIK
B10: C547 (antibody, V domains shown)
VH: QVQLVESGGGVVQPGRSLRLSCAASGFTFSSYGMHWVRQAPGKGLEWVAVISYDGSNKYYADSVKGRFTISRDNSKNTLYLQMNSLRAEDTAVYYCAKDTPGGDDILTGWGLYGMDVWGQGTTVTVSS
VL: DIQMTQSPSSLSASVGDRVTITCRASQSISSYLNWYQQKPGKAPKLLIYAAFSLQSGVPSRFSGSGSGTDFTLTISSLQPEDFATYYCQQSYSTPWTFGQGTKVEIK
B11: C543 (antibody, V domains shown)
VH: QVQLVESGGGVVQPGRSLRLSCTASGFTFSTAGMHWVRQAPGKGLEWVAVISYDGSNKDYADSVKGRFTISRDNSKSTLYLQMNSLRPEDTAVYYCAKDTPGGDDIMTGWGLYGMDVWGQGTTVTVSS
VL: DIQMTQSPSSLSASVGDRVTITCRASQSISSYLNWYHQKPGKAPKLLIYAAISLQSGVPSRFSGSGFGTDFTLTISSLQPEDFAIYYCQQSYSTPWTFGQGTKVEIK
B12: C538 (antibody, V domains shown)
VH: QLQLQESGPGLVKPSETLSLTCTVSGGSISSSSYYWAWIRQPPGKGLEWIGNIYYSGITYYSPSLKSRVTISVDTSKNQFSLKLRSVTAADTAVYYCARQHRYGSGSSELLWGQGTLVTVSS
VL: QSALTQPPSASGSPGQSVTISCTGTSSDVGSYNYVSWYQQHPGKAPKLMIYEVTKRPSGVPDRFSGSKSGNTASLTVSGLQADDEADYYCSSYAGSSNLIFGGGTKLTVL
B13: C513 (antibody, V domains shown)
VH: EVQLLESGGGLVQPGGSLRLSCVASGFSFSTYAMSWVRQAPGQGLEWVSTITGTSIGTYYADSVKGRFTISRDNSKNTVFLQMKSLRAEDAAVYYCANHPLASGDEYYYYYMDVWGKGTTVTVSS
VL: EIVLTQSPDTLSLSPGERATLSCRASQSVHSKQLAWYQQKPGQAPRLLIYGASSRATGIPDRFSGSGSGTDFTLTISRLEPEDFAVYYCQQYGSIRALTFGGGTKVEIK
B14: C080 (antibody, V domains shown)
VH: EVQLVQSGAEVKKPGESLNISCKASGYSFTIYWIAWVRQLPGKGLEWMGIIYPGDSDTRYSPSFQGQVTISADKSISTAYLQWRSLKASDSAVYYCARGVAVDWYFDLWGRGTLVTVSS
VL: QSVLTQPPSVSGAPGQRVTISCAGSSSNIGAGFDVYWYQQLPGTAPKLLIYGNNNRPSGVPDRFSGSKSGTSASLAITGLQAEDEADYYCQSSGSVLSDLYVFGTGTKVTVL
B15: C046 (antibody, V domains shown)
VH: EVQLVESGGGLAQPGRSLRLSCAASGFTFDDYAMHWVRQAPGKGLEWVSGINWNSGSLGYADSVKGRFTISRGIAKNSLYLQMNSLRPEDTAFYYCAKAGVRGIAAAGPDLNFDYWGQGTLVTVSS
VL: EIVLTQSPATLSLSPGERATLSCRASQSVSSYLAWYQQKPGQAPRLLIYDASNRATGIPARFIGSGSGTDFTLTISSLEPEDFAVYYCQQRITFGQGTRLEIK
B16: C521 (antibody, V domains shown)
VH: EVQLVESGGGLVRPGGSLTLSCVASGFTVGSNFMSWVRQAPGKGLEWVSLIYNSGGTHYADSVKGRFTISRDRSKNTLYLQMNSLRAEDTAIYYCANHGYYYYMDVWGKGTTVTVS
VL: QSALTQPASVSGSPGQSITISCTGTGSDIGAYNYVSWHQHHPGKAPKLIIYDVSNRPSGVSNRFSGSKSGNTASLTISGLQAEDEADYYCTSYTNTTTPWVFGGGTKVTVL
B17: C1010 (antibody, V domains shown)
VH: QVQLVESGGGVVQPGRSLRLSCAASGFTFSSYAMHWVRQAPGKGLEWVAVISYDGSNKYYADSVKGRFTISRDNSKNTLYLQMNSLRAEDTAVYYCAKKGQPYCGGDCYFYYFDYWGQGTLVTVSS
VL: DIQMTQSPSSLSASLGDRVTITCQASQDISNYLNWYQQKPGKAPKLLIYDASNLETGVPSRFSGSGSGTDFTFTISSLQPEDIATYYCQQYDNLPPITFGQGTRLEIK
B18: C1011 (antibody, V domains shown)
VH: QVQLVESGGGVVQPGRSLRLSCAVSGFTFSHYAMHWVRQAPGKGLEWVAVISYDGADKYYADSVRGRFTIARDNSKNTLFLQMSSLRPEDTAVYYCAKKGQPYCGGDCHFYYLDYWGQGTLVTVSS
VL: DIQMTQSPSSLSASVGDRVTITCQASQDISNHLNWYQQKPGKAPKLLIYDASNLETGVPSRFSGSGSGTDFTFTISSLQAEDIATYYCQQYDNLPPITFGQGTRLEIK
B19: C840 (antibody, V domains shown)
VH: QVQLVESGGGVVQPGRSLRLSCEASGFTFTAYAMHWLRQAPGKGLEWVAVILNDGSNKLYADSVKGRFTVSRDNSKNMLYLQVNSLRVDDTAVYYCARDGSVDTLMVTWFDYWGQGTLVTVSS
VL: DIQMTQSPSSLSASVGDRVTITCRASQSVNNYLNWYQQKPGQAPKLLIYAASSLQSGVPLRFSGSGSGTDFALTITSLHTEDFATYYCQQSYNTPPWTFGPGTKVEIK
B20: C916 (antibody, V domains shown)
VH: EVQLVESGGGLVQPGGSLRLSCAASGFTFSNYDMHWVRQATGRGLEWVSTIGTAGDTYYPGSVKGRFTISRENAKNSLYLQMNSLRAGDTALYYCARVRYDSSGYFWSLDYWGQGTLVTVSS
VL: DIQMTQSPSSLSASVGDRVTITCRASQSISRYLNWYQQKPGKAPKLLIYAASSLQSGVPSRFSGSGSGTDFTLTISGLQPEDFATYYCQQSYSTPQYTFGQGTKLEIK
B21: C917 (antibody, V domains shown)
VH: EVQLVESGGGLVQPGGSLRLSCAASGFTFSNYDMHWVRQATGKGLDWVSTIGTAGDTYYPGSVKGRFTISRENAKNSLYLQMNSLRAGDTAVYYCARVRFDTSGYFWSLDYWGQGTLVTVSS
VL: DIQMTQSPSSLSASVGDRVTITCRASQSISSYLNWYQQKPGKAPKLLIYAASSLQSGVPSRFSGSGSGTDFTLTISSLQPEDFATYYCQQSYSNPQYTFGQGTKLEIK
B22: C841 (antibody, V domains shown)
VH: EVQLVESGGGLVQPGGSLRLSCAASGFTFSIFSMNWVRQAPGKGLEWISYISSSSGSRHYADSVKGRFTISRDNAKNSLYLQMNNLRDEDTAMYYCAREAHDGALTGYGDYLNWFDPWGQGVLVTVSS
VL: SYELTQPPSVSVAPGKTARIPCGGDSVGSKSVHWYQQKSGQAPVLVIHSDSDRPSGIPERFSGSNSGNTATLTITGVAAGDEADYYCHVWDTIGDRFYWVFGGGTKLTVL

The target of the first experiment is SARS-COV-2 RBD (SARS-COV-2, UniProt P0DTC2 319-539). Kind of experiment: ELISA, RBD coated.
In the case of B1, the EC50 worked out at 1.13 ng/mL.

As for B2, the EC50 was 381 ng/mL.

The molecule B3 had an EC50 of 4.85 ng/mL.

B4: the midpoint of the response, the EC50, lay at 1.3 ng/mL.

Molecule B5 yielded an EC50 of 0.82 ng/mL.

On to B6, for which the EC50 was 1.67 ng/mL.

Consider B7, for which the midpoint of the response, the EC50, lay at 1.61 ng/mL.

For B8, it took 41.9 ng/mL to reach a half-maximal effect (EC50).

In the case of B9, the EC50 was found to be 1.07 ng/mL.

As for B10, the EC50 stood at 1.78 ng/mL.

For the molecule B11, the response was half-maximal at 1.28 ng/mL (EC50).

B12 had a concentration giving a half-maximal response (EC50) of 3.94 ng/mL.

On to B13, for which the EC50 is 1.31 ng/mL.

In turn, B14 displayed an EC50 of 1.97 ng/mL.

On to B15, for which the response was half-maximal at 4.02 ng/mL (EC50).

B16 yielded an EC50 of 6.9 ng/mL.

Another experiment concerns the target T1, SARS-CoV-2 receptor-binding domain (WT RBD; S protein residues 319-539) (SARS-CoV-2, UniProt P0DTC2 319-539).
T1 construct: also called SARS-COV-2 RBD
Kind of experiment: BLI (Octet Red), IgG on protein A biosensor, WT RBD in solution, 1:1 fit.
Consider B17, for which binding was characterised by a dissociation constant (Kd) of 62.5 nM.

Molecule B18 had a Kd of 0.0833 nM.

As to B19, the Kd worked out at 5.56 nM.

Molecule B20 returned a dissociation constant (Kd) of 3.45 nM.

B21 yielded a Kd of 0.101 nM.

Take B22: binding was characterised by a dissociation constant (Kd) of 1.64 nM.

The values are drawn from US20240218057A1 (ROCKEFELLER UNIVERSITY, published 2024).
